Source: US20210253698A1 (AFFIMED, published 2021)

Legend:
[1] = molecular target: human CD16A (FcγRIIIA) on primary human NK cells (human) (UniProt P08637); assay: flow cytometry on primary human NK cells, 37 C, buffer
[2] = molecular target: Human CD16A-158V ECD-monomeric Fc fusion antigen (human) (UniProt P08637); assay: SPR (Biacore T200), receptor-mono-Fc captured, 1:1 model
[3] = molecular target: Cynomolgus CD16A ECD-monomeric Fc fusion antigen (cynomolgus) (UniProt Q8SPW2); assay: ELISA, antigen coated at 1.5 µg/mL (32 nM), scFv titrated
[4] = molecular target: Human CD16A-158F ECD-monomeric Fc fusion antigen (human) (UniProt P08637); assay: as above
[5] = molecular target: Human CD16A-158V ECD-monomeric Fc fusion antigen (human) (UniProt P08637); assay: as above
[6] = molecular target: Human CD16A-158V ECD-monomeric Fc fusion antigen (human) (UniProt P08637); assay: ELISA, CD16 antigen coated at 0.5 µg/mL (10 nM), without competition
[7] = molecular target: Human CD16A-158V ECD-monomeric Fc fusion antigen (human) (UniProt P08637); assay: ELISA, CD16 antigen coated at 0.5 µg/mL (10 nM), competitor 8-10 nM 3G8 IgG
[8] = molecular target: human CD16A (FcγRIIIA) on primary human NK cells (human) (UniProt P08637); assay: flow cytometry on primary human NK cells, 37 C, with 10 mg/mL polyclonal human IgG
[9] = molecular target: human CD16A-158V and cynomolgus CD16 (value not tied to one of the two); assay: SPR, 50 nM analyte, receptor captured, 3 h dissociation
[10] = molecular target: human CD16A (SEQ ID NO:48) (human, UniProt P08637 17-208); assay: SPR (Biacore T200), purified scFv, monovalent binding affinity; human CD16A
[11] = molecular target: cynomolgus CD16A (SEQ ID NO:49) (cynomolgus, UniProt Q8SPW2 17-208); assay: SPR (Biacore T200), purified scFv, monovalent binding affinity; cynomolgus CD16A
[12] = molecular target: T1, biotinylated, recombinant human CD16A(48R-158V) fused to human IgG1 Fc portion (human, UniProt P08637 17-208, limits assumed, biotinylated); assay: ELISA, antibody coated, soluble biotinylated CD16A-Fc titrated
T1 construct: also called soluble CD16A antigen; recombinant human CD16A soluble antigen; not shown: human IgG1 Fc portion

[13] = molecular target: T2, Human CD16A-158F ECD-monomeric Fc fusion antigen (human, UniProt P08637 17-208, biotinylated in SPR); assay: SPR (Biacore T200), receptor-mono-Fc captured, 1:1 model
T2 construct: extracellular domain; not shown: monomeric Fc (Ying et al. 2012) fusion partner, Avi tag in SPR
Protocol: IgGs and scFvs were prepared in HBS-P+buffer at indicated concentration series and are injected to reference surfaces (Fc 1, Fc 3) and receptor captured surface (Fc 2, Fc 4) at a flow rate of 40 μL/min (association time 180 s, dissociation time 300 s). […] Data were referenced by subtraction of signals from reference surfaces (Fc 2-1, Fc 4-3) and zero concentration (buffer control) signals. Kinetic evaluation was performed by fitting data to a 1:1 binding model (Rmax and RI locally fitted) using Biacore T200 Evaluation Software (v3.1). […] Referenced curves were normalized to each curves maximum and overlaid. For investigation of receptor retention via qualitative dissociation phase comparison of monovalent and bivalent CD16A-binding antibodies or ligands, biotinylated mono-Fc(silent)-Avi-tagged receptors were prepared in HBS-P+and captured (human CD16A-158V approx. 160RU, cynomolgus CD16 approx. 320 RU) in flow cells Fc 2 and […].

[14] = molecular target: T3, Human CD16A-158V ECD-monomeric Fc fusion antigen (human, UniProt P08637 17-208); assay: SPR multi-cycle kinetics (Biacore T200), 4-fold dilution series over captured human CD16A-158V
T3 construct: extracellular domain; also called CD16A-158V ECD-Fc fusion antigen; biotinylated mono-Fc(silent)-Avi-tagged receptor; not shown: monomeric Fc (Ying et al. 2012) fusion partner, Avi tag in SPR
Protocol: IgGs and scFvs were prepared in HBS-P+buffer at indicated concentration series and are injected to reference surfaces (Fc 1, Fc 3) and receptor captured surface (Fc 2, Fc 4) at a flow rate of 40 μL/min (association time 180 s, dissociation time 300 s). […] Data were referenced by subtraction of signals from reference surfaces (Fc 2-1, Fc 4-3) and zero concentration (buffer control) signals. Kinetic evaluation was performed by fitting data to a 1:1 binding model (Rmax and RI locally fitted) using Biacore T200 Evaluation Software (v3.1).

[15] = molecular target: T4, B-cell maturation antigen (BCMA) (human, UniProt Q02223 1-54, limits assumed); assay: flow cytometry on Raji cells (low BCMA), APC-A histogram, % of Max
T4 construct: also called CD269; TNFRSF17
T4 sequence (looked up): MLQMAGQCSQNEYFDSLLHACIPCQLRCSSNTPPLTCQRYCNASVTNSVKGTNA

[16] = molecular target: T4, B-cell maturation antigen (BCMA); assay: not stated; binding to BCMA
[17] = molecular target: T5, CD16A (human, UniProt P08637 17-208); assay: not stated; binding to CD16A
T5 construct: also called CD16A antigen; FcγRIIIA

[18] = molecular target: T6, human CD16A (FcγRIIIA) on primary human NK cells (human, UniProt P08637 17-254); assay: flow cytometry on freshly prepared human NK cells, DyLight650-labelled antibody, in the presence of 10 mg/mL SCIG (Hizentra), delta gMFI
T6 construct: whole, on cells
T6 sequence (P08637 17-254): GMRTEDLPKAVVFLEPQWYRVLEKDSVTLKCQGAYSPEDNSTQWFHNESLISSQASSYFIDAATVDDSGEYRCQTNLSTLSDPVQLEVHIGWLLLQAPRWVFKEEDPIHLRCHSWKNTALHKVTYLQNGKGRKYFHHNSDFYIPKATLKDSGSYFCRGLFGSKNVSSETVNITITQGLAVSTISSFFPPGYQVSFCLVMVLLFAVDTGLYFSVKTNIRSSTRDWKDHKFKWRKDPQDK
Protocol: Fresh prepared human NK cells were pre-incubated for 1-hours at 37 C with and without 10 mg/mL of SCIG (Hizentra), then stained with DyLight650 labeled anti-AFM26/CD16a at indicted concentrations. […] In FIGS. 40C and 40D, human NK cells were isolated from a healthy human blood donor. NK (FIG. 40D) and MM.1S cells (FIG. 40C) were preincubated separately in 50% human autologous serum for 2 hours prior to assay setup. NK cells were co-cultured with MM.15 tumor cell line at an approximate E:T ration of 5, and exposed to 10-fold serial diluted test articles from 0.1-100nM for approximately 20 hours at 37 C with 5% CO₂. Antibody staining with CD138 and CD56 followed by FACS were used to monitor cytotoxicity of MM.15 target cells and NK survival. Data were analyzed with the software programs FlowJo and GraphPad Prism 6.

T2 sequence (P08637 17-208): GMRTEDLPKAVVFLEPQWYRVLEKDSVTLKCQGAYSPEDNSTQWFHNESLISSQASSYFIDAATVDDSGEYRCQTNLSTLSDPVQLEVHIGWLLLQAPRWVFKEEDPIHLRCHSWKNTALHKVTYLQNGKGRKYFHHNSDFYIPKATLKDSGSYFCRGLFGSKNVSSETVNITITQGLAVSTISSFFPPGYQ
Sequence of Human CD16A-158V ECD-monomeric Fc fusion antigen (human) (P08637 17-208 F176V): as the sequence (P08637 17-208) above, with F160V counted along it
Sequence of human CD16A (FcγRIIIA) on primary human NK cells (human) (P08637 17-254): as the sequence (P08637 17-254) above
Sequence of Human CD16A-158F ECD-monomeric Fc fusion antigen (human) (P08637 17-208): as the sequence (P08637 17-208) above
Sequence of human CD16A (SEQ ID NO:48) (P08637 17-208 limits assumed): as the sequence (P08637 17-208) above
T5 sequence (P08637 17-208 limits assumed): as the sequence (P08637 17-208) above
T3 sequence (P08637 17-208 F176V): as the sequence (P08637 17-208) above, with F160V counted along it
Sequence of cynomolgus CD16A (SEQ ID NO:49) (Q8SPW2 17-208 limits assumed): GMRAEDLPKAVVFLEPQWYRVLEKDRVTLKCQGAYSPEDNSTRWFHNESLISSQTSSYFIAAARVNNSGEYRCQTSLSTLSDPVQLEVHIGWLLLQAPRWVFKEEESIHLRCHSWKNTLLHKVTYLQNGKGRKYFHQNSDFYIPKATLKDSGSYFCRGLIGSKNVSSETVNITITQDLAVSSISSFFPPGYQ
Sequence of Cynomolgus CD16A ECD-monomeric Fc fusion antigen (cynomolgus) (Q8SPW2 17-208): as the sequence (Q8SPW2 17-208 limits assumed) above
T1 sequence (P08637 17-208 L66R/F176V limits assumed): as the sequence (P08637 17-208) above, with L50R, F160V counted along it

scFv 3G8
Kd [1]: 3.8 nM | Kd [2]: 8.6 nM | EC50 [3]: 0.87 nM | EC50 [4]: 0.58 nM | EC50 [5]: 0.33 nM | EC50 [6]: 0.9 nM | EC50 [7]: 19.7 nM | Kd [8]: 64.6 nM

IgG1 Fc (enhanced, S239D/I332E) (from UniProt P01857 1-330) (antibody)
percent remaining on the receptor after 3 h of dissociation [9]: 10%

B1: anti-CD16A Fv of SEQ ID NOs:1 and 2 (scFv)
chain 1: QVQLVQSGAEVKKPGESLKVSCKASGYTFTSYYMHWVRQAPGQGLEWMGIINPSGGSTSYAQKFQGRVTMTRDTSTSTVYMELSSLRSEDTAVYYCARGSAYYYDFADYWGQGTLVTVSS
chain 2: SYVLTQPSSVSVAPGQTATISCGGHNIGSKNVHWYQQRPGQSPVLVIYQDNKRPSGIPERFSGSNSGNTATLTISGTQAMDEADYYCQVWDNYSVLFGGGTKLTVL
notes: Measured as purified scFv
Kd [10]: 40.5 nM | Kd [11]: 132 nM

B2: scDb-Tribody_01 (other)
VH: QVQLVQSGAEVKKPGESLKVSCKASGYTFTSYYMHWVRQAPGQGLEWMGIINPSGGSTSYAQKFQGRVTMTRDTSTSTVYMELSSLRSEDTAVYYCARGSAYYYDFADYWGQGTLVTVSS
VL: SYVLTQPSSVSVAPGQTATISCGGHNIGSKNVHWYQQRPGQSPVLVIYQDNKRPSGIPERFSGSNSGNTATLTISGTQAMDEADYYCQVWDNYSVLFGGGTKLTVL
notes: Trispecific; LSIV21 scDb VL-VL-VH-VH; HSA(N1) Fab, EGFR; no hinge; no Fc; Chains: anti-CD16A Fv only
EC50 [12]: 0.65 nM

B3: IgG1 Fc (silenced, L234F/L235E/D265A) (antibody)
heavy: ASTKGPSVFPLAPSSKSTSGGTAALGCLVKDYFPEPVTVSWNSGALTSGVHTFPAVLQSSGLYSLSSVVTVPSSSLGTQTYICNVNHKPSNTKVDKKVEPKSCDKTHTCPPCPAPEFEGGPSVFLFPPKPKDTLMISRTPEVTCVVVAVSHEDPEVKFNWYVDGVEVHNAKTKPREEQYNSTYRVVSVLTVLHQDWLNGKEYKCKVSNKALPAPIEKTISKAKGQPREPQVYTLPPSRDELTKNQVSLTCLVKGFYPSDIAVEWESNGQPENNYKTTPPVLDSDGSFFLYSKLTVDKSRWQQGNVFSCSVMHEALHNHYTQKSLSLSPGK
notes: also called human IgG1 Fc-silenced
Kd [13]: 34700 nM | koff [13]: 0.71 s⁻¹ | kon [13]: 20400 M⁻¹ s⁻¹ | binding result [14]: no binding

B4: CD16A/BCMA antibody II (bispecific antibody)
TandAb polypeptide VH BCMA-VL CD16A-VH CD16A-VL BCMA: EVQLLESGGGLVQPGGSLRLSCAASGFTFSNYDMAWVRQAPGKGLEWVSSISTRGDITSYRDSVKGRFTISRDNSKNTLYLQMNSLRAEDTAVYYCARQDYYTDYMGFAYWGQGTLVTVSSGGSGGSGGSGGSSYVLTQPSSVSVAPGQTATISCGGHNIGSKNVHWYQQRPGQSPVLVIYQDNKRPSGIPERFSGSNSGNTATLTISGTQAMDEADYYCQVWDNYSVLFGGGTKLTVLGGSQVQLVQSGAEVKKPGESLKVSCKASGYTFTSYYMHWVRQAPGQGLEWMGAIEPMYGSTSYAQKFQGRVTMTRDTSTSTVYMELSSLRSEDTAVYYCARGSAYYYDFADYWGQGTLVTVSSGGSGGSGGSGGSAIQMTQSPSSLSASVGDRVTITCRASEDIYNGLAWYQQKPGKAPKLLIYGASSLQDGVPSRFSGSGSGTEFTLTISSLQPEDEATYYCAGPHKYPLTFGGGTKVEIK
notes: also called Fc-less TandAb BCMA/CD16A
binding result [15]: binds

B5: CD16A/BCMA antibody I (bispecific antibody, human IgG1, kappa)
heavy: EVQLLESGGGLVQPGGSLRLSCAASGFTFSNYDMAWVRQAPGKGLEWVSSISTRGDITSYRDSVKGRFTISRDNSKNTLYLQMNSLRAEDTAVYYCARQDYYTDYMGFAYWGQGTLVTVSSASTKGPSVFPLAPSSKSTSGGTAALGCLVKDYFPEPVTVSWNSGALTSGVHTFPAVLQSSGLYSLSSVVTVPSSSLGTQTYICNVNHKPSNTKVDKKVEPKSCDKTHTCPPCPAPEFEGGPSVFLFPPKPKDTLMISRTPEVTCVVVAVSHEDPEVKFNWYVDGVEVHNAKTKPREEQYNSTYRVVSVLTVLHQDWLNGKEYKCKVSNKALPAPIEKTISKAKGQPREPQVYTLPPSREEMTKNQVSLTCLVKGFYPSDIAVEWESNGQPENNYKTTPPVLDSDGSFFLYSKLTVDKSRWQQGNVFSCSVMHEALHNHYTQKSLSLSPGGGGGSGGGGSGGGGSGGGGSGGGGSGGGGSSYVLTQPSSVSVAPGQTATISCGGHNIGSKNVHWYQQRPGQSPVLVIYQDNKRPSGIPERFSGSNSGNTATLTISGTQAMDEADYYCQVWDNYSVLFGGGTKLTVLGGSGGSGGSGGSGGSGGSGGSQVQLVQSGAEVKKPGESLKVSCKASGYTFTSYYMHWVRQAPGQGLEWMGAIEPMYGSTSYAQKFQGRVTMTRDTSTSTVYMELSSLRSEDTAVYYCARGSAYYYDFADYWGQGTLVTVSS
light: AIQMTQSPSSLSASVGDRVTITCRASEDIYNGLAWYQQKPGKAPKLLIYGASSLQDGVPSRFSGSGSGTEFTLTISSLQPEDEATYYCAGPHKYPLTFGGGTKVEIKRTVAAPSVFIFPPSDEQLKSGTASVVCLLNNFYPREAKVQWKVDNALQSGNSQESVTEQDSKDSTYSLSSTLTLSKADYEKHKVYACEVTHQGLSSPVTKSFNRGEC
notes: also called scFv-IgAb I BCMA/CD16a; BCMA/CD16A antibody I
Kd [16]: ~2 nM | Kd [17]: ~16 nM | EC50 (read off the curve) [18]: ~40 nM

B6: CD16A/BCMA antibody III (bispecific antibody)
chain 1: DKTHTCPPCPAPEFEGGPSVFLFPPKPKDTLMISRTPEVTCVVVAVSHEDPEVKFNWYVDGVEVHNAKTKPREEQYNSTYRVVSVLTVLHQDWLNGKEYKCKVSNKALPAPIEKTISKAKGQPREPQVYTLPPSREEMTKNQVSLTCLVKGFYPSDIAVEWESNGQPENNYKTTPPVLDSDGSFFLTSKLTVDKSRWQQGNVFSCSVMHEALHNHYTQKSLSLSPGGGGGSGGGGSSYVLTQPSSVSVAPGQTATISCGGHNIGSKNVHWYQQRPGQSPVLVIYQDNKRPSGIPERFSGSNSGNTATLTISGTQAMDEADYYCQVWDNYSVLFGGGTKLTVLGGSGGSQVQLVQSGAEVKKPGESLKVSCKASGYTFTSYYMHWVRQAPGQGLEWMGAIEPMYGSTSYAQKFQGRVTMTRDTSTSTVYMELSSLRSEDTAVYYCARGSAYYYDFADYWGQGTLVTVSSGGSGGSGGSGGSGGSGGSSYVLTQPSSVSVAPGQTATISCGGHNIGSKNVHWYQQRPGQSPVLVIYQDNKRPSGIPERFSGSNSGNTATLTISGTQAMDEADYYCQVWDNYSVLFGGGTKLTVLGGSGGSQVQLVQSGAEVKKPGESLKVSCKASGYTFTSYYMHWVRQAPGQGLEWMGAIEPMYGSTSYAQKFQGRVTMTRDTSTSTVYMELSSLRSEDTAVYYCARGSAYYYDFADYWGQGTLVTVSSAAAGSHHHHHH
chain 2: EVQLLESGGGLVQPGGSLRLSCAASGFTFSNYDMAWVRQAPGKGLEWVSSISTRGDITSYRDSVKGRFTISRDNSKNTLYLQMNSLRAEDTAVYYCARQDYYTDYMGFAYWGQGTLVTVSSGGGGSGGGGSGGGGSAIQMTQSPSSLSASVGDRVTITCRASEDIYNGLAWYQQKPGKAPKLLIYGASSLQDGVPSRFSGSGSGTEFTLTISSLQPEDEATYYCAGPHKYPLTFGGGTKVEIKDKTHTCPPCPAPEFEGGPSVFLFPPKPKDTLMISRTPEVTCVVVAVSHEDPEVKFNWYVDGVEVHNAKTKPREEQYNSTYRVVSVLTVLHQDWLNGKEYKCKVSNKALPAPIEKTISKAKGQPREPQVYTLPPSREEMTKNQVSLYCLVKGFYPSDIAVEWESNGQPENNYKTTPPVLDSDGSFFLYSKLTVDKSRWQQGNVFSCSVMHEALHNHYTQKSLSLSPG
notes: also called KiH-scDb-Fc BCMA/CD16a
binding result [15]: binds
